From PMC4935975, “A neomorphic cancer cell-specific role of MAGE-A4 in trans-lesion synthesis” (Nature Communications, 2016)

Target: T1, Hexa-histidine-tagged MAGE-A4 (human (open reading frame amplified …, UniProt P43358 1-317))
T1 construct: MAGE-A4, full-length recombinant; the MAGE-A4 open reading frame was PCR amplified from H1299 genomic DNA; Expressed from pRSET; also called His-MAGE-A4; 6 × His–MAGE-A4; source: E. coli BL21 (DE3), purified
T1 sequence (looked up): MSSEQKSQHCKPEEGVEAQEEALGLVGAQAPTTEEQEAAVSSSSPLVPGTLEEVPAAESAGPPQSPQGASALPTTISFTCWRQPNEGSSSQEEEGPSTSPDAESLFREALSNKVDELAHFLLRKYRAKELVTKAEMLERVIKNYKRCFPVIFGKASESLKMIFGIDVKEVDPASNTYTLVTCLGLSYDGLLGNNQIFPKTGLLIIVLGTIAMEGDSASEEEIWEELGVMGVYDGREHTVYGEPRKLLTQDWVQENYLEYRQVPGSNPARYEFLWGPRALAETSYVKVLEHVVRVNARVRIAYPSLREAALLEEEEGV
Assay: pull-down; recombinant 6 × His–MAGE-A4 (1 μg) incubated in 1 ml CSK+1% BSA with GST or GST–RAD18 (0.3 μg), 2 h at 4 °C; glutathione sepharose beads; washed three times in CSK+1% BSA; immunoblot
Settings: both partners purified

binding result: binds
B1: GST–RAD18 267-402 (domain or fragment, UniProt Q9NS91 267-402, looked up)
chain: IQGNKQQLIKRHQEFVHMYNAQCDALHPKSAAEIVREIENIEKTRMRLEASKLNESVMVFTKDQTEKEIDEIHSKYRKKHKSEFQLLVDQARKGYKKIAGMSQKTVTITKEDESTEKLSSVCMGQEDNMTSVTNHF
notes: Expressed from pGEX2T; source: E. coli BL21 (DE3), purified
